From the supplement of paper PMC9170038

Tested on: K4 kissing-loop RNA reporter
Assay: apparent KD of K4 kissing-loop reporter; higher = weaker reporter binding
Conditions: Eterna round: R107
Method: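 RNA-MaP round R107: designed RNA switches with theophylline, tryptophan, arginine or FMN aptamers are transcribed on-chip within common flanks. They are titrated with a labelled K4 kissing-loop RNA reporter in RNA-MaP buffer (100 mM Tris pH 7.5, 80 mM KCl, 4 mM MgCl2), without ligand or with the indicated ligand. Median apparent KD per design.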

[1] = input ligand: theophylline 20 uM
[2] = input ligand: tryptophan 2.4 mM
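Also: bound reporter read as fluorescence of individual clusters on recovered sequencing chips by microscopy, with normalized cluster intensities fitted with a binding model.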

Sequence | apparent KD of K4 kissing-loop reporter (input ligand: FMN 200 uM) | apparent KD of K4 kissing-loop reporter (input ligand: arginine 13.2 mM) | apparent KD of K4 kissing-loop reporter (input ligand: none) | apparent KD of K4 kissing-loop reporter [1] | apparent KD of K4 kissing-loop reporter [2]
AACUCUCAGGCAGCCGAGUGAUGUUCGGCCCGAGGACCGGUACGGCCGCCACUCGGGCCUGAGAGAGGUUAUCAAAGAUAGCCAA [#01 K4 Tryptophan A Same State] | 194 nM | 75.2 nM | 89.8 nM | 142 nM | 131 nM
AACUGUCAAGGACAACAUUACUGAGGUGAUACCAGCAUCGAAAGAUGCCCUUGGCAGCACCGACUUGCAGUGAUGUUGCAAGUAA [BrourdMod 11 - Jieux - Exclusion - Theophylline A] | 271 nM | 219 nM | 249 nM | 322 nM | 247 nM
AAGAAUGCAGGAAGGAGCGGCGGACGGAGUGAUGUUCCGGCUAGUGAUGUUAGCAAACACCGCCAGGUAGGUCGCCUGCUGCCCU [Same State Arginine B GF 6] | 207 nM | 127 nM | 171 nM | 153 nM | 151 nM
AAGCAGUCACUCGUAACCAUCGAAGAUGGUCGAGGACCGGUACGGCCGCCACUCGGAGUGAUGUUCCGAAGACUGCAAAAUAAAA [#SwitchBubble 12] | 237 nM | 238 nM | 299 nM | 292 nM | 607 nM
AAGCAGUCGCUCGAAGCCAUCGAAGAUGGGCGAGGACCGGUACGGCCGCCACUCGGAGUGAUGUUCCGAGGACUGCAAAAUAAAA [MatMod 5 - Jieux - Exclusion - Tryptophan A] | 418 nM | 246 nM | 321 nM | 263 nM | 409 nM
AAGCAGUCUCUUGUAGUCAUCGAAGAUGAACGAGGACCGGUACGGCCGCCACUCGGAGUGAUGUUCCGAAGGCUGCAAAAUAAAA [MatMod 18 - Jieux - Exclusion - Tryptophan A] | 300 nM | 297 nM | 309 nM | 404 nM | 324 nM
AAGGCCACGAGAAGGAGCGUGCUGUGGAGUGAUGUUCCAUUGUAGACCUAAGGUCUACGAGCACAGGUAGGUCGCUCGUGGUCAA [Omei KL Arginine B SS A v4] | 113 nM | 97.4 nM | 95.3 nM | 102 nM | 99.6 nM
AAGGUCACUACUACAGUGAUGUUGUGGGAGCAGGAUAUGCAGAAAUGCAGAAGGGCUCGCUCCAGGUGACCGAAUGAAACAUUCA [whbob_SS_FMNA__2th174] | 1500 nM | 882 nM | 1780 nM | 1140 nM | 1140 nM
AAGUGAUGUUGUAGUGAUGUUGUGAUGUUGCAGGAUAUAUAGUGAUGUAGAAGGGUAUGUACAGAUUUUUUUUUUGAGUGAUGUU [ffdcmullin] | 112 nM | 45.5 nM | 73.8 nM | 59 nM | 81.4 nM
AAGUGUCAUUAGACACACGCAUCUAUAAACUAGGAUAUGCUGAUAAGCAGAAGGAGUGAUGUUCCUUUCAUGAUGCGAAUUAAAU [#07 K4 FMN A Exclusion] | 224 nM | 123 nM | 113 nM | 135 nM | 111 nM
AAGUGUGUGGCGGCCGCCACUAGAAUCCAGUGAUGUUGGAGAUAUCACGUAAGUGAUAUCCAUCAUAGGACCGGGCCAUAUAGAA [Same State - Tryptophan B (Freestyle 18)] | 675 nM | 389 nM | 945 nM | 1280 nM | 755 nM
AAGUGUGUGGCGGCCGCCACUAGAAUCCAGUGAUGUUGGAGUAAUCAAAUAAAUAAUAAUAAACAUAGGACCGGGCCAUAUAGAA [Same State - Tryptophan B (Freestyle 2)] | 154 nM | 138 nM | 147 nM | 134 nM | 129 nM
AAGUGUGUGGCGGCCGCCACUAGAAUCCAGUGAUGUUGGAGUUAUCAUAUAAAUGAUAAUCAACAUAGGACCGGGCCAUAUAGAA [Same State - Tryptophan B (Freestyle 7)] | 639 nM | 523 nM | 550 nM | 745 nM | 783 nM
AAUAAAAUCACGGCCGCCACUGAUACUAAUAUUAGCAGUGAUGUUGCUAUGUAUAAUUUAUUAAACAGGACCGGGUGAAUAUUUA [JR_ExcTryptoB_Sub015] | 159 nM | 129 nM | 126 nM | 150 nM | 114 nM
AAUAACUUGCAGUGAUGUUGCAAGAAAUCUCAGGAUAUCAGGAAACUGAGAAGGGAGUAUCCUGAGUAAACAUCACAUCUUAGGA [KL-SSFMN-A8] | 322 nM | 364 nM | 399 nM | 376 nM | 369 nM
AAUAAUAAUAAAUAAAGAUUGAUGAGCAAACGAGGACCGGUACGGCCGCCACUCGAGUGAUGUUCGAGAAGCUCAUCAAUCAUAA [AK4.8 Exc Tryptophan A] | 147 nM | 134 nM | 138 nM | 112 nM | 337 nM
AAUAAUCUAGGUGAUACCAGCUCAACAUGAGUGAUGUUCAUGAAAUAAUGUAGAGUUGAGAGCCCUUGGCAGCACCUAGAUAAUA [KL-SSTheoB5] | 264 nM | 222 nM | 239 nM | 178 nM | 240 nM
AAUACGCCGAAAGGAUAUAUAGAACAUCAAGGGCGCUGACUUUGCUAAAUCACAAGUGAUGUUUGUAUAGAAGGUUCGCAGUCAA [theeternabot_exclusion_KL_FMN_B_30] | 245 nM | 427 nM | 500 nM | 452 nM | 437 nM
AAUGAUGAUUGACACAUUUACUAAAAGGAAGGAGCGGCGAAGUAGCCAGGUAGGUCGCCUUAUAGCAGUGAUGUUGCUAUUUGUU [JR_Nu_ExcArginiA_Sub027] | 59 nM | 106 nM | 83.1 nM | 105 nM | 76.2 nM
AAUGUACAAGUGAUGUUUGUACUUUCCGAAGGAGCGUCUAAUAAGACAGGUAGGUCGCGGAUUCUCUUAAUUAUCAGGUCAUUAA [JR_ExcArginiA_Sub017] | 89.6 nM | 81.3 nM | 86.2 nM | 80.6 nM | 81.6 nM
AAUGUACAGGGAAGGAGCGUCGUCCAGUGAUGUUGGAGUUAAAUACCAGUGAUGUUGGUUAGGCAGGUAGGUCGCCCUAAAGUAG [#09 K4 Arginine B Exclusion] | 102 nM | 71.4 nM | 80.1 nM | 86.5 nM | 82.1 nM

Sequence | apparent KD of K4 kissing-loop reporter (input ligand: FMN 200 uM) | apparent KD of K4 kissing-loop reporter (input ligand: arginine 13.2 mM) | apparent KD of K4 kissing-loop reporter (input ligand: none) | apparent KD of K4 kissing-loop reporter [1] | apparent KD of K4 kissing-loop reporter [2]
AAUUAAGUGACGGCCGCCACUAGGGUGAUUUUUUUGUUUGAGUGAUGUUUUGAUGUUUGAUUUUGUAGGACCGGGUUAGGUGAUG [juhmullin] | 332 nM | 295 nM | 426 nM | 404 nM | 252 nM
AAUUAAUACAGAAGGAGCGUGUUUUUUAAUUUAUUUUCAUGAUCGAGUGAUGUUCGAUAUACACAGGUAGGUCGCUGUAUAUUUA [JR_SSArginiB_Sub008] | 98.8 nM | 142 nM | 113 nM | 139 nM | 92.1 nM
AAUUCAGUGAUGUUGGAAGGCAGGAGGGAUACCAGCGGAAAUAAACGCCCUUGGCAGCCCAAAUAUCCCAAAUAGAUAAUAAUUU [Same State - Theophylline A (Freestyle 1)] | 581 nM | 381 nM | 610 nM | 607 nM | 563 nM
AAUUUAUUAACUGAUACCAGACUUAAUUAAUUGUAAAUUACUAGUGAUGUUAGUGAUUCUGUCCCUUGGCAGCAGUAUUUAUUAA [JR_ExcTheophyB_Sub011] | 98.3 nM | 120 nM | 113 nM | 139 nM | 92.5 nM
ACACUUUACGUAGGAUAUGCGACGAGUGAUGUUCGUCAGGCGGCUUUAGAUUAUACAAGCCGCCUAGCAGAAGGACGGGCAGUGU [Araar] | 127 nM | 157 nM | 172 nM | 158 nM | 170 nM
ACAGUACCGGGAAGGAGCGUGAAUGAGAAUGGAUAUAGUGAUGUUAUGUAUACGAACGAAUCGCAGGUAGGUCGCCCGGAUCCCU [SSArgB.aD] | 563 nM | 507 nM | 650 nM | 722 nM | 529 nM
ACAUUAGCGAGUGAUGUUCGCUAAGACGAAGGAGCGCUCGCGAGAGCAGGUAGGUCGCGUCUAGUGUCACUGUACUAAAUAGUGA [Arg A SS t12] | 159 nM | 164 nM | 180 nM | 183 nM | 169 nM
ACGAAUCCAGCGGCCGCCACUAUUCGAUGAGUGAUGUUUAGGAGUAGAUCAUACCGCCGUGGUAAUAGGACCGGGCUCUUUGUAG [theeternabot_exclusion_KL_Trp_B_36] | 289 nM | 129 nM | 201 nM | 193 nM | 207 nM
ACGAUCAUGUCGGCCGCCACUGAGAGUAGUGAUGUUACUCUUUUCCUUUAGUUAUUAUAUUUUAUCAGGACCGGGACAUGUUCGU [JR_ExcTryptoB_Sub022] | 88.3 nM | 66.7 nM | 72.3 nM | 69.6 nM | 77.9 nM
ACGCGCGCGAGUGAUGUUCGGAGCGGCUGGCAGGAUAUGUAGCAAUGCAGAAGGGUCGUGGCGGUGGGCGCGCAAGCGGCUGCCG [#2 Exclusion - FMN A Attempt #12 (HarryS)] | 187 nM | 318 nM | 396 nM | 399 nM | 371 nM
ACGUAGUUCUAGGAUACCAGCCAAGGAGGGUAGGACAAAAGUCCUGUAGCCAGUGAUGUUGGCCCUUGGCAGCCUAGAACUACGA [Omei KL Theo B Exc B v3] | 162 nM | 183 nM | 138 nM | 139 nM | 151 nM
ACGUGCACUAGUGAUGUUGGAAAAUAGGAAGGAGCGGGCGAAAGCCCAGGUAGGUCGCCUAAUAGCACGAGCCACGAAAGUGGCA | 376 nM | 514 nM | 645 nM | 774 nM | 522 nM
ACGUGCCCAGUGAUGUUGGAUAAAUAUGAAGGAGCGUGCGAAAGCACAGGUAGGUCGCAUAAUAGCACGAGCCACGAAAGUGGCA [#SwitchBubble 7 #K4Early #Sliding] | 179 nM | 200 nM | 181 nM | 245 nM | 134 nM
ACUAUCGAAAGAUAGUUCCCAGAGCUAGUAGAGGAUAUCUGGAAACAGAGAAGGCUACAAGAGUGAUGUUCUUCUAGCUUUGGGA | 403 nM | 291 nM | 316 nM | 337 nM | 349 nM
AGAACUGUCUGAGAUACCAGCCAAGGAGUGAUGUUCCGGCUCGACGAAACGUCGAGCCAUGGCCCUUGGCAGCUCAGACAGUUCA [Omei KL Theo B SS A v2] | 249 nM | 116 nM | 195 nM | 191 nM | 102 nM
AGACUACCACACUGUCAAUAGACAGUGGACUAGGAUAUGCUGAUAAGCAGAAGGAGUGAUGUUCCCAGGUAGUCAAUAAAAUAAU [FmnAX 13 G28+C66] | 215 nM | 205 nM | 225 nM | 322 nM | 246 nM
AGACUACUGAUAGGAUAUAACAUCCUAGUCGUAUACCGAAAGGUAUACGAAACCCUUCUAGUGAUGUUAGAAGGGUCGGUAGUCA [Omei KL FMN B Exc B v9] | 79.8 nM | 67.1 nM | 80.9 nM | 59.6 nM | 69.4 nM
AGACUUCACCGAAGGAGCGACGUGGCCUAGUGAUGUUAGGCACGAGAGAAAUCUCGUGUACGUCAGGUAGGUCGCGGUGAAGUCA [Omei KL Arginine B SS C v7] | 909 nM | 648 nM | 939 nM | 862 nM | 816 nM
AGAGUCGGCUGUGAUACCAGUCGUAUUACAACAUGUCGCAGUGAUGUUGCGAGAUAGGAUGACCCUUGGCAGCACUCAGUACGAU [Same State Theophylline B GF 8] | 347 nM | 277 nM | 421 nM | 503 nM | 323 nM
AGAGUUAAUUAGUCUUUUUUCACAUUAAGUCAGGAUAUCGUAUUUUCGAGAAGGGACACAUGCUAGUGAUGUUAGCUAUUUCUCA [JR_Nu3_ExcFMNA_Sub020] | 60.1 nM | 103 nM | 67.5 nM | 114 nM | 59.6 nM
AGAGUUAUGCGAGGAUAUGCAGUUAGUACUCAAAGAGUACUAACGCAGAGUGAUGUUCUGUGAAAUGCAGAAGGUGCAUAACUCA [Omei KL FMN B SS B v5] | 157 nM | 316 nM | 330 nM | 316 nM | 289 nM
